Laboratory results published in patent US20250122291A1 (CEPHALON, published 2025).

What was measured:
[1] = biological target: native rat TrkA on PC12 cells (rat, UniProt P35739 33-799); assay: cell-based or functional assay
recombinant human TrkA = biological target: T1, recombinant human TrkA (human, UniProt P04629 33-423, limits assumed); assay: SPR, antibody captured on protein A chip, TrkA as analyte, single concentration, 1:1 model
T1 construct: also called hTrkA
T1 sequence (P04629 33-423 limits assumed): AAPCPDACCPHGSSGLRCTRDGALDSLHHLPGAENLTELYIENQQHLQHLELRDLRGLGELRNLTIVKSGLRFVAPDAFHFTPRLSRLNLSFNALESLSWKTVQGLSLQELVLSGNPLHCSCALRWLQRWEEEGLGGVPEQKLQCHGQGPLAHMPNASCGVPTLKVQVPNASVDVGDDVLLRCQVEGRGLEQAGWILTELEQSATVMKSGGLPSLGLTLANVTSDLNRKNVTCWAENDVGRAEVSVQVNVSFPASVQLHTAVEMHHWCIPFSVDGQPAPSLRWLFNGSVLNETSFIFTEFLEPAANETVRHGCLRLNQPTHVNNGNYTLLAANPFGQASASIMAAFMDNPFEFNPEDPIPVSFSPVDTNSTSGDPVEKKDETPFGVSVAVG

Chain of native rat TrkA on PC12 cells (P35739 33-799): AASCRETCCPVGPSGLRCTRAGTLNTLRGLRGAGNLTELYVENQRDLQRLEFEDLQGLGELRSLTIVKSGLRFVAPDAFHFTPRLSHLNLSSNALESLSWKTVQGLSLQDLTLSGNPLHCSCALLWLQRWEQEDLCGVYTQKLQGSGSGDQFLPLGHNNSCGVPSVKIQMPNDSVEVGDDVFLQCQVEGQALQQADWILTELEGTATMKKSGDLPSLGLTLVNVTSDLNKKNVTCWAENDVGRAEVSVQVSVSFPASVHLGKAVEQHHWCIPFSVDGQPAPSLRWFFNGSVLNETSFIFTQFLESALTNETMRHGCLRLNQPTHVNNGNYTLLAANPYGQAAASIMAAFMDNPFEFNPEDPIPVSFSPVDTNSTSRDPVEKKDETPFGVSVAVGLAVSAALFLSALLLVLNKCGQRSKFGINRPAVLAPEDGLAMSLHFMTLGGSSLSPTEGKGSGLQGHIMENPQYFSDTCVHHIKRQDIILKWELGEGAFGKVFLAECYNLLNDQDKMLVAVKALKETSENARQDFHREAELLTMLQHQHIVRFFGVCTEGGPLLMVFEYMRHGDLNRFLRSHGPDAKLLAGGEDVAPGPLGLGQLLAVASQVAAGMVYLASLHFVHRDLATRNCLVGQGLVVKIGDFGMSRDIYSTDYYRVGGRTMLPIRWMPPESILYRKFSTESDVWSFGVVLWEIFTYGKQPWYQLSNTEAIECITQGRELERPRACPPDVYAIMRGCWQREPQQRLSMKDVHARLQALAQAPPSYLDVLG
Chain of mouse β-NGF (P01139 122-241 limits assumed): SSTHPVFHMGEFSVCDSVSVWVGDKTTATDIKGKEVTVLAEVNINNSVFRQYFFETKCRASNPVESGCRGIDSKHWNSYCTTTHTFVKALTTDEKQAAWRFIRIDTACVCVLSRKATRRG

Molecule	Akt phosphorylation in PC12 cells, EC50 [1]	Erk phosphorylation in PC12 cells, EC50 [1]	TrkA receptor phosphorylation in PC12 cells (AlphaLISA p-TrkA Tyr674/675), EC50 [1]	neurite outgrowth in PC12 cells at 138 hours, EC50 [1]	Kd (recombinant human TrkA)	koff (recombinant human TrkA)	kon (recombinant human TrkA)	Akt pathway activation (pEC50) [1]	Erk pathway activation (pEC50) [1]	Neurite outgrowth (pEC50) [1]
mouse β-NGF (from UniProt P01139 122-241) (ligand)	0.025 nM	0.025 nM	0.129 nM	0.0078 nM	–	–	–	–	–	–
anti-TrkA antibody Ab386 (antibody, V domains shown) VH: QVQLQESGPGLVKPSGTLSLTCAVSGGSISSSNWWTWVRQPPGKGLEWIGEIYHRGNRNYNPSLKSRVTISVDKSKNQFSLKLSSVTAADTAVYYCARAPWFDYWGQGTLV VL: SSELTQDPAVSVALGQTVRITCQGDSLRSYYASWYQQKPGQAPVLVIYGKNNRPSGIPDRFSGSSSGNTASLTITGAQAEDEADYYCNSQDSSGNHLIFGGGTKLTVLG	–	–	–	–	1.15 nM	0.000305 s⁻¹	266000 M⁻¹ s⁻¹	9 pEC50	9.23 pEC50	10.1 pEC50
anti-TrkA antibody Ab49 (antibody, V domains shown) VH: EVQLQESGPGLVKPSGTLSLTCAVSGGSISSSNWWTWVRQPPGKGLEWIGEIYHRGNRNYNPSLKSRVTISVDKSKNQFSLKLSSVTAADTAVYYCARAPWFDYWGQGTLV VL: SSELTQDPAVSVALGQTVRITCQGDSLRSYYASWYQQKPGQAPVLVIYGKNNRPSGIPDRFSGSSSGNTASLTITGAQAEDEADYYCASQASSGNHLIFGGGTKLT	–	–	–	–	1.78 nM	0.000472 s⁻¹	264000 M⁻¹ s⁻¹	9.12 pEC50	9.29 pEC50	10.1 pEC50
anti-TrkA antibody Ab76 (antibody, V domains shown) VH: EVQLQESGPGLVKPSGTLSLTCAVSGGSISSSNWWTWVRQPPGKGLEWIGEIYHRGNRNYNPSLKSRVTISVDKSKNQFSLKLSSVTAADTAVYYCARAPWFDYWGQGTLV VL: SSELTQDPAVSVALGQTVRITCQGDALRSYYASWYQQKPGQAPVLVIYGKNKRPSGIPDRFSGSSSGNTASLTITGAQAEDEADYYCASQASSGNHLIFGGGTKLT	–	–	–	–	0.943 nM	0.000211 s⁻¹	–	9.57 pEC50	9.78 pEC50	9.95 pEC50
anti-TrkA antibody Ab449 (antibody, V domains shown) VH: QVQLQESGPGLVKPSGTLSLTCAVSGGSISSSNWWTWVRQPPGKGLEWIGEIYHRGNRNYNPSLKSRVTISVDKSKNQFSLKLSSVTAADTAVYYCARAPWFDRWGQGTLV VL: SSELTQDPAVSVALGQTVRITCQGDSLRSYYASWYQQKPGQAPVLVIYGKNNRPSGIPDRFSGSSSGNTASLTITGAQAEDEADYYCNSQDSSGNHLIFGGGTKLTVLG	–	–	–	–	0.875 nM	0.000244 s⁻¹	279000 M⁻¹ s⁻¹	–	–	–
anti-TrkA antibody Ab122 (antibody, V domains shown) VH: EVQLQESGPGLVKPSGTLSLTCAVSGGSISSSNWWTWVRQPPGKGLEWIGEIYHRGNRNYNPSLKSRVTISVDKSKNQFSLKLSSVTAADTAVYYCARAPWFDYWGQGTLV VL: SSELTQDPAVSVALGQTVRITCQGASLRSYYASWYQQKPGQAPVLVIYGKNKRPSGIPDRFSGSSSGNTASLTITGAQAEDEADYYCASQASSGNHLIFGGGTKLT	–	–	–	–	1.45 nM	0.000294 s⁻¹	–	9.5 pEC50	9.88 pEC50	9.6 pEC50
anti-TrkA antibody Ab119 (antibody, V domains shown) VH: EVQLQESGPGLVKPSGTLSLTCAVSGGSISSSNWWTWVRQPPGKGLEWIGEIYHRGNRNYNPSLKSRVTISVDKSKNQFSLKLSSVTAADTAVYYCARAPWFDYWGQGTLV VL: SSELTQDPAVSVALGQTVRITCQGASLRSYYASWYQQKPGQAPVLVIYGKNKRPSGIPDRFSGSSSGNTASLTITGAQAEDEADYYCNSQASSGNHLIFGGGTKLT	–	–	–	–	1.11 nM	0.000265 s⁻¹	–	9.25 pEC50	10.2 pEC50	10.2 pEC50
anti-TrkA antibody Ab101 (antibody, V domains shown) VH: EVQLQESGPGLVKPSGTLSLTCAVSGGSISSSNWWTWVRQPPGKGLEWIGEIYHRGNRNYNPSLKSRVTISVDKSKNQFSLKLSSVTAADTAVYYCARAPWFDYWGQGTLV VL: SSELTQDPAVSVALGQTVRITCQGGSLRSYYASWYQQKPGQAPVLVIYGKGNRPSGIPDRFSGSSSGNTASLTITGAQAEDEADYYCNSQDSSGNHLIFGGGTKLT	–	–	–	–	1.29 nM	0.000352 s⁻¹	273000 M⁻¹ s⁻¹	9.2 pEC50	9.45 pEC50	10 pEC50
anti-TrkA antibody Ab96 (antibody, V domains shown) VH: EVQLQESGPGLVKPSGTLSLTCAVSGGSISSSNWWTWVRQPPGKGLEWIGEIYHRGNRNYNPSLKSRVTISVDKSKNQFSLKLSSVTAADTAVYYCARAPWFDYWGQGTLV VL: SSELTQDPAVSVALGQTVRITCQGGSLRSYYASWYQQKPGQAPVLVIYGKNKRPSGIPDRFSGSSSGNTASLTITGAQAEDEADYYCNSQASSGNHLIFGGGTKLT	–	–	–	–	1.23 nM	0.000277 s⁻¹	–	9.53 pEC50	10.2 pEC50	9.81 pEC50
anti-TrkA antibody Ab82 (as in Tables 4 and 6) (antibody, V domains shown) VH: QVQLQESGPGLVKPSGTLSLTCAVSGGSISSSNWWTWVRQPPGKGLEWIGEIYHRGNRNYNPSLKSRVTISVDKSKNQFSLKLSSVTAADTAVYYCARAPWFDYWGQGTLV VL: SSELTQDPAVSVALGQTVRITCQGDALRSYYASWYQQKPGQAPVLVIYGKGNRPSGIPDRFSGSSSGNTASLTITGAQAEDEADYYCASQASSGNHLIFGGGTKLT	–	–	–	–	1.75 nM	0.000443 s⁻¹	253000 M⁻¹ s⁻¹	9.09 pEC50	9.14 pEC50	9.99 pEC50
anti-TrkA antibody Ab70 (antibody, V domains shown) VH: EVQLQESGPGLVKPSGTLSLTCAVSGGSISSSNWWTWVRQPPGKGLEWIGEIYHRGNRNYNPSLKSRVTISVDKSKNQFSLKLSSVTAADTAVYYCARAPWFDYWGQGTLV VL: SSELTQDPAVSVALGQTVRITCQGDALRSYYASWYQQKPGQAPVLVIYGKNNRPSGIPDRFSGSSSGNTASLTITGAQAEDEADYYCASQASSGNHLIFGGGTKLT	–	–	–	–	1.63 nM	0.000432 s⁻¹	265000 M⁻¹ s⁻¹	9.05 pEC50	9.21 pEC50	10 pEC50
anti-TrkA antibody Ab67 (antibody, V domains shown) VH: EVQLQESGPGLVKPSGTLSLTCAVSGGSISSSNWWTWVRQPPGKGLEWIGEIYHRGNRNYNPSLKSRVTISVDKSKNQFSLKLSSVTAADTAVYYCARAPWFDYWGQGTLV VL: SSELTQDPAVSVALGQTVRITCQGDALRSYYASWYQQKPGQAPVLVIYGKNNRPSGIPDRFSGSSSGNTASLTITGAQAEDEADYYCNSQASSGNHLIFGGGTKLT	–	–	–	–	1.91 nM	0.000477 s⁻¹	250000 M⁻¹ s⁻¹	9.07 pEC50	9.28 pEC50	9.96 pEC50
anti-TrkA antibody Ab676 (antibody, V domains shown) VH: QVQLQESGPGLVKPSGTLSLTCAVSGGSVSSGNWWTWVRQPPGKGLEWIGEIYHRGNTNYNPSLKSRVTISVDKSKNQFSLKLNSVTAADTAVYFCARAPFFDYWGQGTLV VL: SSELTQDPAVSVALGQTVRITCQGDSLRSYYASWYQQKPGQAPVLVIHGKNNRPSGIPDRFSGSSSGNTASLTITGAQAEDEADYYCNSQVYGGNHLIFGGGTKLTVLG	–	–	–	–	0.815 nM	0.000216 s⁻¹	265000 M⁻¹ s⁻¹	–	–	–
anti-TrkA antibody Ab3 (antibody, V domains shown) VH: QVQLQESGPGLVKPSGTLSLTCAVSGGSVSSGNWWTWVRQPPGKGLEWIGEIYHRGNTNYNPSLKSRVTISVDKSKNQFSLKLNSVTAADTAVYFCARAPFFDYWGQGTLV VL: SSELTQDPAVSVALGQTVRITCQGDSLRSYYASWYQQKPGQAPVLVIFGKNNRPSGIPDRFSGSSSGNTASLTITGAQAEDEADYYCNSQVSGGNHLIFGGGTKLTVLG	–	–	–	–	2.1 nM	0.000614 s⁻¹	293000 M⁻¹ s⁻¹	8.67 pEC50	8.86 pEC50	9.79 pEC50
anti-TrkA antibody Ab476 (antibody, V domains shown) VH: QVQLQESGPGLVKPSGTLSLTCAVSGGSISSSNWWTWVRQPPGKGLEWIGEIYHRGNRNYNPSLKSRVTISVDKSKNQFSLKLSSVTAADTAVYYCARAPFFDRWGQGTLV VL: SSELTQDPAVSVALGQTVRITCQGDSLRSYYASWYQQKPGQAPVLVIHGKNNRPSGIPDRFSGSSSGNTASLTITGAQAEDEADYYCNSQDSSGNHLIFGGGTKLTVLG	–	–	–	–	1.25 nM	0.0003 s⁻¹	240000 M⁻¹ s⁻¹	–	–	–
anti-TrkA antibody Ab124 (antibody, V domains shown) VH: EVQLQESGPGLVKPSGTLSLTCAVSGGSISSSNWWTWVRQPPGKGLEWIGEIYHRGNRNYNPSLKSRVTISVDKSKNQFSLKLSSVTAADTAVYYCARAPWFDYWGQGTLV VL: SSELTQDPAVSVALGQTVRITCQGASLRSYYASWYQQKPGQAPVLVIYGKGNRPSGIPDRFSGSSSGNTASLTITGAQAEDEADYYCNSQDSSGNHLIFGGGTKLT	–	–	–	–	1.21 nM	0.000327 s⁻¹	271000 M⁻¹ s⁻¹	9.03 pEC50	9.23 pEC50	10.1 pEC50
anti-TrkA antibody Ab79 (antibody, V domains shown) VH: EVQLQESGPGLVKPSGTLSLTCAVSGGSISSSNWWTWVRQPPGKGLEWIGEIYHRGNRNYNPSLKSRVTISVDKSKNQFSLKLSSVTAADTAVYYCARAPWFDYWGQGTLV VL: SSELTQDPAVSVALGQTVRITCQGDALRSYYASWYQQKPGQAPVLVIYGKGNRPSGIPDRFSGSSSGNTASLTITGAQAEDEADYYCNSQASSGNHLIFGGGTKLT	–	–	–	–	1.67 nM	0.000421 s⁻¹	252000 M⁻¹ s⁻¹	8.97 pEC50	9.21 pEC50	10.2 pEC50
anti-TrkA antibody Ab523 (antibody, V domains shown) VH: QVQLQESGPGLVKPSGTLSLTCAVSGGSVSSGNWWTWVRQPPGKGLEWIGEIYHRGNRNYNPSLKSRVTISVDKSKNQFSLKLNSVTAADTAVYFCARAPFFDYWGQGTLV VL: SSELTQDPAVSVALGQTVRITCQGDSLRSYYASWYQQKPGQAPVLVIYGKNNRPSGIPDRFSGSSSWNTASLTITGAQAEDEADYYCNSQDSSGNHLIFGGGTKLTVLG	–	–	–	–	1.3 nM	0.000258 s⁻¹	199000 M⁻¹ s⁻¹	–	–	–
